Values quoted from earlier work as cited in paper PMC10532679.

Assays:
PKA-C (Homo sapiens) [1] = target: PKA-C (Homo sapiens) (UniProt P17612)
PKA-C (Homo sapiens) [2] = target: PKA-C (Homo sapiens) (UniProt P17612); remark: listed apart in the source

PKA-RII (from UniProt P13861)
Kd (PKA-C (Homo sapiens) [1]): 0.1 nM | Ki (PKA-C (Homo sapiens) [2]): < 1 nM
